This data set concerns Escherichia coli TOP10. Nature of the data set: shrunken log2 fold change of peptide-encoding DNA abundance (4.5 h post-induction vs induction); higher = less antimicrobial activity (less host growth inhibition). The conditions noted are these: time post-induction: 4.5 h; library: site-saturation at positions 5, 18, 19, 20.
In the case of RRIRGRPPRLPRPRPRPCEIPRP, the “shrunken log2 fold change” value amounted to 0.128. The figure for RRIRLRPPRLPRPRPRPNGHPRP is -0.0365; for RRIRERPPRLPRPRPRPTMNPRP it is -0.19; for RRIRPRPPRLPRPRPRPDTAPRP it is -0.0311. The figure for RRIRLRPPRLPRPRPRPTWQPRP is 0.187; for RRIRERPPRLPRPRPRPCCDPRP it is -0.362; for RRIRGRPPRLPRPRPRPLGRPRP it is 0.599. As to RRIRLRPPRLPRPRPRPMLRPRP, the “shrunken log2 fold change” value stood at 0.0543. Take RRIRCRPPRLPRPRPRPIGKPRP: the “shrunken log2 fold change” value is -0.188. With RRIRCRPPRLPRPRPRPECCPRP the figure was 0.401; with RRIRLRPPRLPRPRPRPSPMPRP, -0.107; with RRIRDRPPRLPRPRPRPGWFPRP, 0.297. With RRIRQRPPRLPRPRPRPFIDPRP the figure was -0.0223; with RRIRSRPPRLPRPRPRPEGDPRP, 0.203; with RRIRERPPRLPRPRPRPGAMPRP, 0.316. With RRIRWRPPRLPRPRPRPACYPRP the figure was 0.443; with RRIRRRPPRLPRPRPRPLVWPRP, 0.529.

As for RRIRFRPPRLPRPRPRPCTAPRP, the “shrunken log2 fold change” value was -0.487. With RRIRDRPPRLPRPRPRPGLCPRP the figure was 0.224; with RRIRLRPPRLPRPRPRPAYVPRP, -0.177; with RRIRSRPPRLPRPRPRPAVSPRP, 0.105.

With RRIRGRPPRLPRPRPRPACFPRP, the “shrunken log2 fold change” value stood at 0.939. With RRIRPRPPRLPRPRPRPGISPRP the figure was -0.155. Regarding RRIRHRPPRLPRPRPRPMMFPRP, the “shrunken log2 fold change” value is -0.18. With RRIRIRPPRLPRPRPRPPLCPRP, the “shrunken log2 fold change” value was 0.142. The figure for RRIRPRPPRLPRPRPRPCFNPRP is -0.512; for RRIRHRPPRLPRPRPRPPKPPRP it is 0.116. With RRIRSRPPRLPRPRPRPQFLPRP the figure was -0.394; with RRIRFRPPRLPRPRPRPQWCPRP, -0.0514; with RRIRFRPPRLPRPRPRPEKNPRP, -0.0204. With RRIRLRPPRLPRPRPRPVIAPRP the figure was -0.176; with RRIRIRPPRLPRPRPRPPDRPRP, 0.109. Consider RRIRFRPPRLPRPRPRPNGDPRP, for which the “shrunken log2 fold change” value was -0.131. With RRIRLRPPRLPRPRPRPWDSPRP the figure was -0.145. The figure for RRIRVRPPRLPRPRPRPAWEPRP is 0.162; for RRIRCRPPRLPRPRPRPTLTPRP it is -0.14; for RRIRERPPRLPRPRPRPQDHPRP it is -0.0577. With RRIRFRPPRLPRPRPRPIGYPRP the figure was -0.363; with RRIRQRPPRLPRPRPRPVLQPRP, -0.107. Take RRIRIRPPRLPRPRPRPSMPPRP: the “shrunken log2 fold change” value is -0.339. The figure for RRIRMRPPRLPRPRPRPPLSPRP is 0.185; for RRIRGRPPRLPRPRPRPNEDPRP it is 0.468; for RRIRDRPPRLPRPRPRPIVKPRP it is 0.0295. The figure for RRIRTRPPRLPRPRPRPDVGPRP is -0.0549; for RRIRMRPPRLPRPRPRPDYMPRP it is -0.00256; for RRIRVRPPRLPRPRPRPIGGPRP it is 0.801. With RRIRRRPPRLPRPRPRPMTTPRP the figure was 0.0808; with RRIRPRPPRLPRPRPRPMAYPRP, -0.126; with RRIRHRPPRLPRPRPRPEGGPRP, -0.0289.

On to RRIRGRPPRLPRPRPRPGWFPRP, for which the “shrunken log2 fold change” value came to 0.27. In the case of RRIRQRPPRLPRPRPRPLQIPRP, the “shrunken log2 fold change” value was 0.223.

Consider RRIRLRPPRLPRPRPRPFWQPRP, for which the “shrunken log2 fold change” value was -0.0702. For RRIRKRPPRLPRPRPRPERIPRP, the “shrunken log2 fold change” value was 0.00934.

For RRIRCRPPRLPRPRPRPCHHPRP, the “shrunken log2 fold change” value is -0.332. The figure for RRIRNRPPRLPRPRPRPFYIPRP is -0.51. With RRIRFRPPRLPRPRPRPVQIPRP the figure was -0.0152. For the sequence RRIRYRPPRLPRPRPRPLLYPRP, the “shrunken log2 fold change” value is -0.94. With RRIRTRPPRLPRPRPRPLWRPRP the figure was 0.00366; with RRIRARPPRLPRPRPRPAYFPRP, 0.0133.

In the case of RRIRKRPPRLPRPRPRPFAHPRP, the “shrunken log2 fold change” value was -0.00992. The figure for RRIRTRPPRLPRPRPRPQKPPRP is -0.0591; for RRIRGRPPRLPRPRPRPPKNPRP it is 1.11; for RRIRIRPPRLPRPRPRPGCSPRP it is -0.391. With RRIRWRPPRLPRPRPRPERRPRP the figure was 0.327; with RRIRMRPPRLPRPRPRPDNEPRP, 0.379; with RRIRCRPPRLPRPRPRPRLKPRP, 0.0782. With RRIRARPPRLPRPRPRPETDPRP the figure was 0.764; with RRIRKRPPRLPRPRPRPDQNPRP, 0.678. Turning to RRIRSRPPRLPRPRPRPLMGPRP, the “shrunken log2 fold change” value was -0.271. The figure for RRIRFRPPRLPRPRPRPNESPRP is 0.0698; for RRIRMRPPRLPRPRPRPWHMPRP it is 0.00487; for RRIRVRPPRLPRPRPRPKRQPRP it is 0.0464. The figure for RRIRTRPPRLPRPRPRPEEFPRP is -0.0783; for RRIRMRPPRLPRPRPRPFWKPRP it is 0.072; for RRIRRRPPRLPRPRPRPWFEPRP it is 0.0607.

On to RRIRFRPPRLPRPRPRPHMEPRP, for which the “shrunken log2 fold change” value was -0.405.

For the sequence RRIRVRPPRLPRPRPRPGYPPRP, the “shrunken log2 fold change” value is -0.343. The figure for RRIRMRPPRLPRPRPRPAHGPRP is 0.226; for RRIRNRPPRLPRPRPRPPGFPRP it is 1.54. With RRIRVRPPRLPRPRPRPMMNPRP, the “shrunken log2 fold change” value is -0.28. With RRIRWRPPRLPRPRPRPTRWPRP the figure was 0.573. Consider RRIRTRPPRLPRPRPRPLAYPRP, for which the “shrunken log2 fold change” value is -0.982. The figure for RRIRTRPPRLPRPRPRPCSLPRP is -0.128. The figure for RRIRTRPPRLPRPRPRPVFDPRP is -0.226; for RRIRPRPPRLPRPRPRPYREPRP it is -0.073; for RRIRRRPPRLPRPRPRPNFPPRP it is 0.46. Consider RRIRHRPPRLPRPRPRPVIHPRP, for which the “shrunken log2 fold change” value was -0.283.

For the sequence RRIRDRPPRLPRPRPRPIYLPRP, the “shrunken log2 fold change” value is 2.37.

On to RRIRCRPPRLPRPRPRPGMNPRP, for which the “shrunken log2 fold change” value is -0.131. With RRIRWRPPRLPRPRPRPESTPRP the figure was 1.17; with RRIRNRPPRLPRPRPRPGLKPRP, 0.265. The figure for RRIRKRPPRLPRPRPRPRILPRP is 0.0416. As for RRIRWRPPRLPRPRPRPGEEPRP, the “shrunken log2 fold change” value was 0.387. The figure for RRIRFRPPRLPRPRPRPTICPRP is -0.288; for RRIRRRPPRLPRPRPRPEYIPRP it is -0.199.

On to RRIRFRPPRLPRPRPRPKLFPRP, for which the “shrunken log2 fold change” value was -0.0554. The figure for RRIRARPPRLPRPRPRPDRKPRP is 0.0521.

For the sequence RRIRGRPPRLPRPRPRPCNFPRP, the “shrunken log2 fold change” value amounted to 0.138. Consider RRIRPRPPRLPRPRPRPKQMPRP, for which the “shrunken log2 fold change” value was 0.268. Take RRIRTRPPRLPRPRPRPSLVPRP: the “shrunken log2 fold change” value amounted to 0.0852. Take RRIRNRPPRLPRPRPRPENLPRP: the “shrunken log2 fold change” value turned out to be 0.00699.

Take RRIRFRPPRLPRPRPRPFMPPRP: the “shrunken log2 fold change” value was -0.469.

In the case of RRIRMRPPRLPRPRPRPKGHPRP, the “shrunken log2 fold change” value was found to be 0.0377. As to RRIRARPPRLPRPRPRPTMEPRP, the “shrunken log2 fold change” value worked out at 0.564. The figure for RRIRSRPPRLPRPRPRPLSIPRP is -0.447; for RRIRTRPPRLPRPRPRPSKSPRP it is -0.437; for RRIRHRPPRLPRPRPRPAQYPRP it is -0.0609. RRIRERPPRLPRPRPRPSEDPRP: the “shrunken log2 fold change” value is -0.0724.

Consider RRIRNRPPRLPRPRPRPRHAPRP, for which the “shrunken log2 fold change” value was found to be 0.0219. RRIRIRPPRLPRPRPRPVHTPRP: the “shrunken log2 fold change” value is -0.4. With RRIRSRPPRLPRPRPRPCTRPRP, the “shrunken log2 fold change” value is -0.134. In the case of RRIRHRPPRLPRPRPRPGSDPRP, the “shrunken log2 fold change” value was -0.014. With RRIRQRPPRLPRPRPRPACRPRP the figure was -0.0513. With RRIRARPPRLPRPRPRPEHCPRP the figure was 0.0263; with RRIRTRPPRLPRPRPRPMMIPRP, 0.000458. The figure for RRIRFRPPRLPRPRPRPPQPPRP is 0.795.

For the sequence RRIRYRPPRLPRPRPRPFKYPRP, the “shrunken log2 fold change” value was -0.689. With RRIRRRPPRLPRPRPRPETHPRP the figure was 0.697; with RRIRWRPPRLPRPRPRPQYCPRP, -0.198; with RRIRHRPPRLPRPRPRPCQPPRP, -0.0284. With RRIRLRPPRLPRPRPRPDRDPRP the figure was -0.154. The figure for RRIRYRPPRLPRPRPRPPDPPRP is 0.179; for RRIRLRPPRLPRPRPRPPDQPRP it is 0.349; for RRIRCRPPRLPRPRPRPHWLPRP it is -0.311. For RRIRHRPPRLPRPRPRPVSNPRP, the “shrunken log2 fold change” value is -0.222.

The record behind these values is the supplement of paper PMC9112550, “Optimization of the antimicrobial peptide Bac7 by deep mutational scanning” (BMC Biology, 2022).
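Also: peptides expressed intracellularly from a pBAD plasmid library in pooled LB shake-flask culture, induced with 0.3% L-arabinose, DNA abundance read by NGS, three biological replicates, DESeq2 with apeglm shrinkage.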
